Test results from IntAct's records for PubMed 26918958.

B1: Latent-transforming growth factor beta-binding protein 4 (Homo sapiens), Q8N2S1-1 (parent)
chain: MPRPGTSGRRPLLLVLLLPLFAAATSAASPSPSPSQVVEVPGVPSRPASVAVCRCCPGQTSRRSRCIRAFCRVRSCQPKKCAGPQRCLNPVPAVPSPSPSVRKRQVSLNWQPLTLQEARALLKRRRPRGPGGRGLLRRRPPQRAPAGKAPVLCPLICHNGGVCVKPDRCLCPPDFAGKFCQLHSSGARPPAPAVPGLTRSVYTMPLANHRDDEHGVASMVSVHVEHPQEASVVVHQVERVSGPWEEADAEAVARAEAAARAEAAAPYTVLAQSAPREDGYSDASGFGYCFRELRGGECASPLPGLRTQEVCCRGAGLAWGVHDCQLCSERLGNSERVSAPDGPCPTGFERVNGSCEDVDECATGGRCQHGECANTRGGYTCVCPDGFLLDSSRSSCISQHVISEAKGPCFRVLRDGGCSLPILRNITKQICCCSRVGKAWGRGCQLCPPFGSEGFREICPAGPGYHYSASDLRYNTRPLGQEPPRVSLSQPRTLPATSRPSAGFLPTHRLEPRPEPRPDPRPGPELPLPSIPAWTGPEIPESGPSSGMCQRNPQVCGPGRCISRPSGYTCACDSGFRLSPQGTRCIDVDECRRVPPPCAPGRCENSPGSFRCVCGPGFRAGPRAAECLDVDECHRVPPPCDLGRCENTPGSFLCVCPAGYQAAPHGASCQDVDECTQSPGLCGRGACKNLPGSFRCVCPAGFRGSACEEDVDECAQEPPPCGPGRCDNTAGSFHCACPAGFRSRGPGAPCQDVDECARSPPPCTYGRCENTEGSFQCVCPMGFQPNTAGSECEDVDECENHLACPGQECVNSPGSFQCRTCPSGHHLHRGRCTDVDECSSGAPPCGPHGHCTNTEGSFRCSCAPGYRAPSGRPGPCADVNECLEGDFCFPHGECLNTDGSFACTCAPGYRPGPRGASCLDVDECSEEDLCQSGICTNTDGSFECICPPGHRAGPDLASCLDVDECRERGPALCGSQRCENSPGSYRCVRDCDPGYHAGPEGTCDDVDECQEYGPEICGAQRCENTPGSYRCTPACDPGYQPTPGGGCQDVDECRNRSFCGAHAVCQNLPGSFQCLCDQGYEGARDGRHCVDVNECETLQGVCGAALCENVEGSFLCVCPNSPEEFDPMTGRCVPPRTSAGTFPGSQPQAPASPVLPARPPPPPLPRRPSTPRQGPVGSGRRECYFDTAAPDACDNILARNVTWQECCCTVGEGWGSGCRIQQCPGTETAEYQSLCPHGRGYLAPSGDLSLRRDVDECQLFRDQVCKSGVCVNTAPGYSCYCSNGYYYHTQRLECIDNDECADEEPACEGGRCVNTVGSYHCTCEPPLVLDGSQRRCVSNESQSLDDNLGVCWQEVGADLVCSHPRLDRQATYTECCCLYGEAWGMDCALCPAQDSDDFEALCNVLRPPAYSPPRPGGFGLPYEYGPDLGPPYQGLPYGPELYPPPALPYDPYPPPPGPFARREAPYGAPRFDMPDFEDDGGPYGESEAPAPPGPGTRWPYRSRDTRRSFPEPEEPPEGGSYAGSLAEPYEELEAEECGILDGCTNGRCVRVPEGFTCRCFDGYRLDMTRMACVDINECDEAEAASPLCVNARCLNTDGSFRCICRPGFAPTHQPHHCAPARPRA

Variants of: B1
Conditions: with tgfb1_human TGFB1, P01137
Sequence of tgfb1_human TGFB1, P01137 (P01137 whole entry): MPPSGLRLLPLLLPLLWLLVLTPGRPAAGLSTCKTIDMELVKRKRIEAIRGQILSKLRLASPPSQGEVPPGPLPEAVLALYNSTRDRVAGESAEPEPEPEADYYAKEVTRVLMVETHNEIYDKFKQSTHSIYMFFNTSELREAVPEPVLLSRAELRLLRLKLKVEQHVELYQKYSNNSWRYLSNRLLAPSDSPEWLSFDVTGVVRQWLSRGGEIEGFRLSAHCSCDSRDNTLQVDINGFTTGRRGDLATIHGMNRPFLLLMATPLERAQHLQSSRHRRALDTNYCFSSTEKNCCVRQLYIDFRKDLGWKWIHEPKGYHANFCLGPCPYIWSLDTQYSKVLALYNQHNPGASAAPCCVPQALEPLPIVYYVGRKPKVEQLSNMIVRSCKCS

effect of a mutation on the interaction | Variant
with no effect | V194I;T787A;T820A;T1141M
with no effect | T1141M
